Measured values: patent publication EP1141254B1

Legend:
Assay in all cases: cell-based or functional assay
[1] = target: 980603 (Röhm): purified preparation of Frimond's Belase xylanase (identical to Röhm's) (Bacillus subtilis)
[2] = target: 980903 (XM1): purified mutant of Bacillus sub. wild type xylanase expressed in E. coli
[3] = target: 980601 (BX): purified preparation of Danisco's new bacterial xylanase expressed in E. coli (Bacillus subtilis) (UniProt P18429)

endogenous endo-β-1,4-xylanase inhibitor from wheat flour, sequence (main, form in doubt): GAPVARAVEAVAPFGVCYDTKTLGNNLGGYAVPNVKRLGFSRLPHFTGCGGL
endogenous endo-β-1,4-xylanase inhibitor from wheat flour, sequence (main, form in doubt): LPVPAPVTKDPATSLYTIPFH

Inhibition, % (inhibitor extracted from flour 98002) [1]: 60.8% | Inhibition, % (inhibitor extracted from flour 98026) [1]: 61.3% | Rest act., % (average of flours 98002 and 98026) [1]: 39% | Rest act., % (inhibitor extracted from flour 98002) [1]: 39.2% | Rest act., % (inhibitor extracted from flour 98026) [1]: 38.7% | residual activity of XM1 after incubation with flour extract, relative to that of XM2 [2]: 2.5 fold | Inhibition, % (inhibitor extracted from flour 98002) [3]: 67% | Inhibition, % (inhibitor extracted from flour 98026) [3]: 75% | OD 590 in the inhibitor assay with inhibitor extract from flour 98026 (without inhibitor: 0.675) [3]: 0.165 OD 590 | Residual activity, % (inhibitor extract from flour 98026) [3]: 24.4% | Rest act., % (average of flours 98002 and 98026) [3]: 29% | Rest act., % (inhibitor extracted from flour 98002) [3]: 33% | Rest act., % (inhibitor extracted from flour 98026) [3]: 25% | Vmax from the Lineweaver-Burk plot of xylanase 980601 with and without inhibitor (relative OD 590) (relative OD 590) [3]: 1.19
Substance: endogenous endo-β-1,4-xylanase inhibitor from wheat flour
